The values that follow come from patent US20230340061A1, “PEPTIDES AND METHODS FOR THE TREATMENT OF MULTIPLE SCLEROSIS” (IMCYSE SA, priority 2020, published 2023).

The labels stand for the following.
B1: P7 peptide HCPYCGGFLRVPCWKI (peptide)
peptide: HCPYCGGFLRVPCWKI
notes: P1 with the motif HCHGC replaced by HCPYC
B2: P1 peptide HCHGCGGFLRVPCWKI (peptide)
peptide: HCHGCGGFLRVPCWKI
notes: Synthetic; disclosed in WO2017182528; also called control P1 peptide; prior art peptide P1
B3: P6 peptide HCHGCVRYFLRVPCWKI (peptide)
peptide: HCHGCVRYFLRVPCWKI
notes: P1 with the linker GG replaced by VRY
B4: P11 peptide KHCPYCGGFLRVPSWKITLFKK (peptide)
peptide: KHCPYCGGFLRVPSWKITLFKK
notes: P4 with the linker VRY replaced by GG
B5: P4 peptide KHCPYCVRYFLRVPSWKITLFKK (peptide)
peptide: KHCPYCVRYFLRVPSWKITLFKK
notes: Synthetic
B6: P8 peptide KHCHGCVRYFLRVPSWKITLFKK (peptide)
peptide: KHCHGCVRYFLRVPSWKITLFKK
notes: P4 with the motif KHCPYC replaced by KHCHGC
B7: P10 peptide KCRPYCVRYFLRVPSWKITLFKK (peptide)
peptide: KCRPYCVRYFLRVPSWKITLFKK
notes: P4 with the motif KHCPYC replaced by KCRPYC
B8: P5 peptide KHCPYCVRYFLRVPCWKITLFKK (peptide)
peptide: KHCPYCVRYFLRVPCWKITLFKK
notes: Synthetic
B9: P9 peptide KCRCVRYFLRVPSWKITLFKK (peptide)
peptide: KCRCVRYFLRVPSWKITLFKK
notes: P4 with the motif KHCPYC replaced by KCRC

The target in one test is T1, soluble HLA-DRB1*03:01 human MHC II protein (human).
T1 construct: Soluble protein purchased from the Benaroya Research Institute; also called HLA-DR3; DR3
Put plainly: soluble-phase competition vs biotin-labelled control peptide, Eu3+-streptavidin time-resolved fluorescence.
Turning to B1, the binding result was “binds”.
Consider B2, for which the binding result was “binds”.
Still for that read-out and setting: under B3 stands “binds”; under B4, “binds”.
B5: the binding result was “binds”.
Turning to B6, the binding result was “binds”.
As for B7, the binding result is given as “binds”.
On the same count and under the same terms, with B8 the entry was “binds”; with B9, “binds”.

A further test has as its target T2, soluble HLA-DRB1*04:01 human MHC II protein (human).
T2 construct: Soluble protein purchased from the Benaroya Research Institute; also called HLA-DR4; DR4
The test is described as above.
Regarding B1, the binding result is “binds”.
As for B2, the binding result is listed as “binds”.
Still for that read-out and setting: with B3 the entry was “binds”.
The same measure, in the same setting: with B4 the entry was “binds”; with B5, “binds”; with B6, “binds”.
Still for that read-out and setting: under B7 stands “binds”.
Turning to B8, the binding result was “binds”.
The same measure, in the same setting: under B9 stands “binds”.
